We go through 11 sequences from a protein production outcome set (Wang et al. 2014).

The nature of the data set: label from the status in PepcDB records.
As to “MLKTVRIIILGAMCTILSAAGFDPPQPAAAKSQADEYEYPFQDPSLPVQKRVSDLLSRLTLEEKVSLMHQYQPAVPRLGIPAFKTGTEALHGVAWLGEATVFPQAFGLAHTWDRYLIKQIGSAVGDEVRGFHHLDPAANGVNVWAPVVDLLRDPRWGRNEEGYSEDPFLTGEIATAYASGLRGDHPFYLKTVPTLKHFLAYNNETDRGFSSSSIDPRNMHEYYLKPFETAISKKAAYGLMPAYNSVNDKPAILSPLLDSTVKRRWAGDDFFIVSDAFDPSGIVNDHKYYDSHEKAHAHAVKAGIDNFTDQGENPELTRNALTGALKQGLISEKDLDQALANTFSIRFRTGEFDPDELNPYSRLTDDVINSPKHQLLAKKAAEKAIVLLKNDQDLLPFNARKNESIAVIGPFGNALYEDWYSGTMPYRKTPLDEIADKIGKDRVSFAEGLEQSGFKSALTGKFVTAGRDGKQPLTAAADKLEKSAAFDAADWGESIFTLRAQANGLYVSLQDDGRLIADQKQPNGRTVKETFQFEQQSDGTFAIKNTANGKYLTAGKDGTLTAAAEKPATAAEKFSKTIIKSGTDEAVQLAKSADKAIVFVGNNPYINGRETEDRKDITLPPAQENLLKAVSKANTNTVLVVTSSYPFALNWAKAHIPAIIYSAHGGQEAGSALADILYGDVNPGGRLTQTWHTSVKELPDMMNYDIIKGKRTYKYFVGKPLFPFGHGLSYTAFRYSDLSLSSDSIKKDGSVTIRVNVTNTGGRKGDEVVQLYTSPLFKTRVKQPNLDLKDFQRVELAPKETKTVTFKLKQTDLAFWDVTRETFAVERGPYRISVGSSAADIRKTKRIFVQGETIRERNLRRKTNAEDYDDYKGVLITEESKYGGDAVKSSTTNAWIAYHDVRFKGEKRIEAKVASSGAGEIGIFLDHPQKGKQIGSLKVPDTSGLQNWKTVKASVRKSTGTHRVFFVFKGKVAIDSFQFER”, the protein production result is listed as “failed”.

With “MLLALLSLGTWPAVLTLLERRGRLPQHTYLDYSITNLLAAIIIAFTFGQIGSTKPDSPNFITQLAQDNWPSVMFAMAGGIVLSLGNLSTQYAWALVGLSVTEVITSSITVVIGSTLNYFLDDKINKAEILFPGVACFLIAVCLGSAVHRSNADDNKAKLRDFETAKQEASGPSTEIGTNSSKDLETNVTTKPKEGTARFLIELENTRAIKVFGKRKIIGLAITFFAGLCFSLFSPAFNLATNDQWNRLKQGVPKLVVYTAFFYFSVSCFIIALILNVVFLYYPVLGLPKSSFKAYLNDWNGRYWAFLAGFLCGFGNGLQFMGGQAAGYAAADSVQALPLVSTFWGVVLFGEYRRSSRKTYLLLFCMLFMFISAVAVLMASSGHRK”, the protein production result was “failed”.

In the case of “MLLEGLLFVLAAGIFTAIVCGFGTLPFFFVDEISDRVTVALWGLAGGIMLFASLFGFIFEGLRDGTVFEVGAGLVVGVVVVVVADRIITGYEFEPRDIPDADFRKLVLIVGVLTVHSFPEGVALGVAFADLGIEGDLVLAGLAIPGLAIFITAAISIQNIPEGLAVAIPLHTYGIANWKIFGWAVFSSIPQPIGAGIAYVFVTTAREFLPFGFGFASGAMIFLVLHDIFPEGLDHGSDLPGHGRRELLVGIAVGVAIMLPVMLLTE”, the protein production result is listed as “failed”.

With “MLLGVIPVLAILLLGFNIHLLVKERRYKKSWISFSMLGLNGLLFVAFTFFLLVYMAGFVTITTIPPFVYWFLIMLGFIIEGMSLYKKYVPGQMTAAAIHLFVVLPTIFSIGIVLLLVAIIELIVAMMNGTGGHPVPRNKQTTTP”, the protein production result was “failed”.

Regarding “MLLHGTNRSLRTGLRARGRGSTGARGTLAVSHAAGPSSHSLTLHSCALLPYTLHAHAFFPCAQTNMASSKKAIYAAILGNFAIAVTKFLGAAVSGSSAMLAEGIHSLVDTGNGGLLLLGLRRSKRPPDENHPYGYGKSLYFYTLVVAVLIFGLGGGISLYEGILHTLDPGHGGASTASVLGVTVGGLMLNTVVLGAAIVFEGLALRTALQEFKKQRGDTPFFEAIVTSKDPTTFTVVFEDTAALAGLVVALVGIHLASLLHMPVIDGIASIIIGLILCGVAAFLIWESKKLLIGEAAAPEIRDDIRRMAHDDADIASVERLLTMHMGPRALLLNMDLRFRDDLDANTVEAAVDRLERAIRKAHPSIRYIFVEAGSIARTRASDSGASAAGGPPS”, the protein production entry is recorded as “failed”.

“MLLHLSTWQEVEAYLQQSKGIIFPIGSTEQHGPTGLIGTDAICAEAIAAGVGDATGAIVGPTINVGMALHHTAFPGTISLRPSTLIQVVRDYVTCLAKAGFSKFYFINGHGGNIATLKAAFSETYAHLEDLQIANAQQVQCQVANWFMCGSVYKLAKELYGDQEGSHATPSEVALTQYVYPEAIKQAPLSPEVASGHRIYSAADFRVRYPDGRMGSNPGLATPEHGKQFYDLAVKELSNGYLEFVNAD”: the protein production result was “not failed”.

Turning to “MLLIFFKKYEQSDIMRKLFLLSILMIGVIVAFAGCVEESKTTTQLQQTTQSESQKAETQPKLGVNVVRYAETFKLYPHWDEGYCVVADSVGNKFVLVEGNAKAPNISDGKIIKVPVKRIVTDFYCPIISAADILNAYHHTIVGAPKYAVEKSPKLKELFDEGKVVDIGSPSKGVNYELIVNLTPDIVFLGDWKSEDVVEEKLKELGVTVSRFYTYQEPTYMGRVEWIKFAAAFWGSNAYKKADKWFENVVKVRENILKKVQNVTNEPTVVIFSWSKTKNMPGIYGNDSYYSKMIAEFKGKNVFDDYNRGYQYVDKETFYERAMNADVVILIWFYGDVKTKEDLLKINPNFAEFKAFKTGRFYVSHPDYYVWEARDPAGYMMDFAKMIHPELFGGDDDLKYYYKIK”, the protein production result was “failed”.

On to “MLLQANRGLGLSAHIIDHCNLILKFPEGTNSTWYNAQFKVFEALEFKYNVCEAVLLWEQYRNMTTVLTREYLDVRPDGWLDYAAMRIAQLGADKCYNRTLCEEHLNVILPAKPPFHPRQFHKCAVVGNSGDLLKTEFGEEIDSHDAVFRDNEAPVNEKYAKYVGVKRDFRLVVRGAARNMIKILNGSDNEVLIIKSVTHRDFNEMIKRIPNPVYLFQGIVLRRGAKGTGMKSIELALSMCDIVDIYGFTVDPGYTEWTRYFSTPRKGHNPLQGRAYYQLLECLGVQITC”, for which the protein production result was “failed”.

Consider “MLLRRRLFVLCILILTITAVQSFVHVLSGDGLSALDLALTAVFVPLAAWLAQSFCTLTAGALMIATQRFSWRRRRDELADIASGLVDSLPRVAIVMPVYNEDSGRVFAGVAAMRDELRALGVAKRFDVFILSDSTDGDNWLAEEEAWDSERHRVGDSPRLFYRRRFRNIKRKTGNIGQFVERHGAAYGYMVVLDADSLMSGEAIWVLTRRMDAERRTALIQAPPKLIMGDTPFSRMLQFAGDVYGPLSSAGLAFWAGGEGNYWGHNAIIRVDAFAACCGLPALPGRAPLGGDILSHDFVEAALLRRAGWKVRIAWDLGGSYEEPPPTMEDFMVRDRRWCQGNMQHGRILFARGLHGVSRSHLLIGIMSYVTSPLWLIFLILSGMQAWTLARAKAVYFQQGVPWATWPISREEEAAYLLAGTLGMLFLPKIWGLLLAIFHGPTRRAHGGGLALVGGFFLENLISALVAPIMMIRHSQFVVSILTGAKVDWKPQRRTADKGNLRVALASYKDVMVIGIAAVAFVLWAAPSLGVWLSPVLAGLLGAPFLAMALGDPDLGAALRRRGLLVIPEEITPPSVLTRMEERLAARPPTAEAPESRFSRVILDPGTNARHRALIQATGEAPTAPVEVMERAVGLAIHLGPEALGKDERKALLECPERLEQLHVACWARRLEDRGGVAPG”, for which the protein production result is reported as “failed”.

With “MLLSFFLINSNGEVIIEKSWKTEHTRRVCDLFWQEILKVSSPEELAPLLHFPKFTIVHIYSCGVFLVATVRKTLQSTFALELLHHLVDTFVDYFGEFNEHAIKENFVTVYEIIEEVLDHGFPFTVDIASLKELVPPPSLLSRVLGSVTGSSLSLKDISDWNSRKKVSWRNPNIRYAHNEIFVDIVEEVSVVLNSKGQCIHSGISGSIVVNCRLSGMPELALHLNESSIAKHSFVHPCVRYGRFIREGIISFVPPDGVFQLLKYQTWKAPYIPVTLEPQYSVDKERKHGRLQLTLDIRGCGGKPCEEMMISIPFHHATNITNLNVTVGTVRYDSQIQVCPI”, the protein production result is listed as “failed”.

Regarding “MLLSKKSEYKTLSTVEHPQYIVFCDFDETYFPHTIDEQKQQDIYELEDYLEQKSKDGELIIGWVTGSSIESILDKMGRGKFRYFPHFIASDLGTEITYFSEHNFGQQDNKWNSRINEGFSKEKVEKLVKQLHENHNILLNPQTQLGKSRYKHNFYYQEQDEINDKKNLLAIEKICEEYGVSVNINRCNPLAGDPEDSYDVDFIPIGTGKNEIVTFMLEKYNLNTERAIAFGDSGNDVRMLQTVGNGYLLKNATQEAKNLHNLITDSEYSKGITNTLKKLIGFMRRK”, the protein production entry is “not failed”.
